Non-standard residues stand in square brackets, D forms with d. pS = N[C@@H](COP(=O)(O)O)C(=O)O
B1: MLL(840-858) peptide (peptide)
peptide: Ac-DCGNILPSDIMDFVLKNTPY-NH2
notes: mixed lineage leukemia (MLL) transcription factor peptide, printed residues 840-858; last printed letter of the peptide, beyond the 19 residues of the stated range; source: synthetic peptide (HPLC purified, reduced with DTT, 98% purity)
B2: pKID(119-147) peptide, phosphorylated kinase-inducible domain of CREB (peptide)
peptide: Ac-TDSQKRREILSRRP[pS]YRKILNDLSSDAPG-NH2
SMILES: CC[C@H](C)[C@H](NC(=O)[C@H](CCCCN)NC(=O)[C@H](CCCNC(=N)N)NC(=O)[C@H](Cc1ccc(O)cc1)NC(=O)[C@H](COP(=O)(O)O)NC(=O)[C@@H]1CCCN1C(=O)[C@H](CCCNC(=N)N)NC(=O)[C@H](CCCNC(=N)N)NC(=O)[C@H](CO)NC(=O)[C@H](CC(C)C)NC(=O)[C@@H](NC(=O)[C@H](CCC(=O)O)NC(=O)[C@H](CCCNC(=N)N)NC(=O)[C@H](CCCNC(=N)N)NC(=O)[C@H](CCCCN)NC(=O)[C@H](CCC(N)=O)NC(=O)[C@H](CO)NC(=O)[C@H](CC(=O)O)NC(=O)[C@@H](NC(C)=O)[C@@H](C)O)[C@@H](C)CC)C(=O)N[C@@H](CC(C)C)C(=O)N[C@@H](CC(N)=O)C(=O)N[C@@H](CC(=O)O)C(=O)N[C@@H](CC(C)C)C(=O)N[C@@H](CO)C(=O)N[C@@H](CO)C(=O)N[C@@H](CC(=O)O)C(=O)N[C@@H](C)C(=O)N1CCC[C@H]1C(=O)NCC(N)=O
notes: kinase-inducible domain of CREB, residues 119-147, phosphorylated; source: synthetic peptide (HPLC purified, >90% purity)

How the values were obtained:
[1] = target: T1, KIX domain from mouse CBP, residues 586-672 (mouse, UniProt P45481 586-672); experiment: differential scanning fluorimetry (DSF); 20 uM protein with 5X SYPRO orange, incubated with 1X TAD peptide at RT for 30 minutes; 25-95°C at 1°C/min; Tm is the maximum of the first derivative, dTm the difference between protein and protein + ligand; details: both partners purified
T1 construct: the pRSETB vector may add further residues beside the His tag (surmise); also called apo KIX; Apo KIX(586-672); source: E. coli BL21 DE3, purified (HisTrap Ni IMAC, Source S ion exchange)
T1 sequence (P45481 586-672): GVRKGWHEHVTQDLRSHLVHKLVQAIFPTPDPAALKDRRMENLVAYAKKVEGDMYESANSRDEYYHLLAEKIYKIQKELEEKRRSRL

[2] = target: T2, KIX_(I660V) (KIX domain from mouse CBP, residues 586-672, I660V) (mouse, UniProt P45481 586-672, I660V); experiment: as above; details: both partners purified
T2 construct: also called mutant KIX_(I660V); K_(I660V); source: E. coli BL21 DE3, purified (HisTrap Ni IMAC, Source S ion exchange)
T2 sequence (P45481 586-672 I660V): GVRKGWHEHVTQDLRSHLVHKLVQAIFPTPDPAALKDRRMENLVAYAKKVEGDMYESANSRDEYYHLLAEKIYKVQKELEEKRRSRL

Binder	increase in TM [1] [°C]	binding result [1]	binding result [2]
B1	0.8	–	–
B2	–	binds	binds

— PMC9067669, “Allostery in the dynamic coactivator domain KIX occurs through minor conformational micro-states” (PLoS Computational Biology, 2022)
